From PMC11503491 (ACS Central Science, 2024)

Experiments:
[1] = target: wild-type SARS-CoV-2 Wuhan Hu-1 receptor-binding domain (residues 319-533) (SARS-CoV-2 Wuhan-Hu-1); experiment: BLI; details: both partners purified
[2] = target: SARS-CoV-2 RBD (RWT), wild-type Wuhan Hu-1 receptor-binding domain, residues 319-533 (SARS-CoV-2 Wuhan Hu-1); experiment: BLI; details: both partners purified

B1: COVA2-15 (antibody, V domains shown)
VH: QVQLLESGGGLVQPGGSLRLSCAASGFTFSSYAMSWVRQAPGKGLEWASAISGSGGSTYYADSVEGRFTISRDNSKNTLYLQMNSLRAEDTAVYYCAKDTGYCGDDCYIKLIRGGPDYWGQGTLVTVSS
VL: DIVMTQSPLSLPVTLGQPASISCRSSQSLVYSDGNTFLNWFQQRPGQSPRRLIYQVSNRDSGVPDRFSGSGSGTDFTLKISRVEAEDVGVYYCMQGTHWPRTFGQGTKLEIK
notes: also called class 2 antibody
- binding result [1]: binds

B2: CB6 (class 1 RBD-directed antibody) (antibody, V domains shown)
VH: EVQLVESGGGLVQPGGSLRLSCAASGFTVSSNYMSWVRQAPGKGLEWVSVIYSGGSTFYADSVKGRFTISRDNSMNTLFLQMNSLRAEDTAVYYCARVLPMYGDYLDYWGQGTLVTVSS
VL: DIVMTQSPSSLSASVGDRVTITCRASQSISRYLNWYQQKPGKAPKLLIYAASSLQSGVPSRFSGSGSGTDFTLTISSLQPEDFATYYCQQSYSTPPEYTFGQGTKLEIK
- koff [2]: 0.013 s⁻¹

B3: CB6 (antibody, V domains shown)
VH: EVQLVESGGGLVQPGGSLRLSCAASGFTVSSNYMSWVRQAPGKGLEWVSVIYSGGSTFYADSVKGRFTISRDNSMNTLFLQMNSLRAEDTAVYYCARVLPMYGDYLDYWGQGTLVTVSS
VL: not shown
- binding result [1]: binds

B4: C002 (antibody, V domains shown)
VH: EVQLVESGGGVVQPGRSLRLSCAASGFTFSIYGMHWVRQAPGKGLEWVAVISYDGSNKYYADSVKGRFTISRDNSKNTLYLQMNSLRAEDTAVYYCAKEGRPSDIVVVVAFDYWGQGTLVTVSS
VL: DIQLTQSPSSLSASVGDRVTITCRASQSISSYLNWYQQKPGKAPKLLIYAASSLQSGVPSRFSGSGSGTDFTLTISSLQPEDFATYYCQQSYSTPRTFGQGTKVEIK
- binding result [1]: binds

B5: SA55 (antibody, V domains shown)
VH: QVQLVQSGAEVKKPGSSVKVSCKASGGTFRSHVISWVRQAPGQGLEWMGGFIPLFGTTIYAQAFQGRVMISADESTSTAYMELSSLRSEDTAVYFCARLFPNGDPNSPEDGFDIWGQGTLVTVSS
VL: DIQMTQSPSSLSASVGDRVTITCQASQDIGNYLNWYQQKPGKAPKLLIYDASHLETGVPSRFSGSGSGTDFTFTISSLQPEDIATYYCQRYDDLPSYTFGQGTKVEIK
notes: also called S2X259-like class 4 antibody
- binding result [1]: binds

B6: C022 (antibody, V domains shown)
VH: QVQLQESGPGLVKPSETLSVTCTVSGGSISSSRYYWGWIRQPPGKGLEWIGSIYYSGSTYYNPSLKSRVTISVDTSKNQFSLKLSSVTAADTAVYYCARHAAAYYDRSGYYFIEYFQHWGQGTLVTVSS
VL: DIQMTQSPSTLSASVGDSVTITCRASQSISSWLAWYQQKPGKAPKLLIYKASSLESGVPSRFSGSGSGTEFTLTISSLQPDDFATYYCQQYNNYRYTFGQGTKLEIK
notes: as for B5
- binding result [1]: binds

B7: S2X259 IgG (antibody, V domains shown)
VH: QVQLVQSGAEVKKPGSSVKVSCKASGGIFNTYTISWVRQAPGQGLEWMGRIILMSGMANYAQKIQGRVTITADKSTSTAYMELTSLRSDDTAVYYCARGFNGNYYGWGDDDAFDIWGQGTLVTVYS
VL: QTVLTQPPSVSGAPGQRVTISCTGSNSNIGAGYDVHWYQQLPGTAPKLLICGNSNRPSGVPDRFSGSKSGTSASLAITGLQAEDEADYYCQSYDSSLSGPNWVFGGGTKLTVL
notes: also called class 4 mAb
- koff [1]: 0.0011 s⁻¹

B8: fragment antigen-binding region (Fab) of S2X259 (Fab, V domains shown)
VH: QVQLVQSGAEVKKPGSSVKVSCKASGGIFNTYTISWVRQAPGQGLEWMGRIILMSGMANYAQKIQGRVTITADKSTSTAYMELTSLRSDDTAVYYCARGFNGNYYGWGDDDAFDIWGQGTLVTVYS
VL: QTVLTQPPSVSGAPGQRVTISCTGSNSNIGAGYDVHWYQQLPGTAPKLLICGNSNRPSGVPDRFSGSKSGTSASLAITGLQAEDEADYYCQSYDSSLSGPNWVFGGGTKLTVL
notes: also called S2X259 Fab
- Kd [1]: 0.97 ± 0.5 nM

B9: 1-16 (antibody, V domains shown)
VH: QVQLVQSGAEVKKPGASVKVSCKASGYTFTSYYMHWVRQAPGQGLEWMGIINSSGGSTSYAQKFQGRVTMTRDTSTSTVYMELSSLRSEDTAVYYCARPPRNYYDRSGYYQRAEYFQHWGQGTLVTVSS
VL: DIQLTQSPSSLSASVGDRVTITCQASQDISNYLNWYQQRPGKAPKLLIYDASNLETGVPSRFSGSGSGTDFTFTISSLQPEDIATYYCQQYDNPPLTFGGGTKLEIK
notes: as for B5
- binding result [1]: binds

B10: CR3022 (class 4 RBD-directed antibody) (antibody, V domains shown)
VH: QMQLVQSGTEVKKPGESLKISCKGSGYGFITYWIGWVRQMPGKGLEWMGIIYPGDSETRYSPSFQGQVTISADKSINTAYLQWSSLKASDTAIYYCAGGSGISTPMDVWGQGTTVTVSS
VL: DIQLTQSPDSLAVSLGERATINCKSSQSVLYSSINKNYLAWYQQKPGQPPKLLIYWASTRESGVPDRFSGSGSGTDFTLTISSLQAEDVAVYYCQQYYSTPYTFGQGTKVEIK
notes: IgG
- koff [2]: 0.016 s⁻¹

B11: CR3022 (antibody, V domains shown)
VH: QMQLVQSGTEVKKPGESLKISCKGSGYGFITYWIGWVRQMPGKGLEWMGIIYPGDSETRYSPSFQGQVTISADKSINTAYLQWSSLKASDTAIYYCAGGSGISTPMDVWGQGTTVTVSS
VL: not shown
notes: also called class 4 antibody
- binding result [1]: binds
